Experimental findings from PMC2586299 (Developmental cell, 2008) are described below.

Numbering of substitutions follows the chain as printed.

Sequences and labels used below:
T1: GST-CHMP6 (construct of the VPS4B measurement not stated) (human, UniProt Q96FZ7 1-201)
T1 sequence (looked up): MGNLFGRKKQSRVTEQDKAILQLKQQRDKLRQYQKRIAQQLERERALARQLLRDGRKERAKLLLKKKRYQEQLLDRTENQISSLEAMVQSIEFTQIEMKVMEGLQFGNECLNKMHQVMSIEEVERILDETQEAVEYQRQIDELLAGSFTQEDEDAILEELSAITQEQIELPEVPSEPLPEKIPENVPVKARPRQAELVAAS

T2: GST-CHMP6 without the final 20 residues (human, UniProt Q96FZ7 1-181)
T2 sequence (looked up): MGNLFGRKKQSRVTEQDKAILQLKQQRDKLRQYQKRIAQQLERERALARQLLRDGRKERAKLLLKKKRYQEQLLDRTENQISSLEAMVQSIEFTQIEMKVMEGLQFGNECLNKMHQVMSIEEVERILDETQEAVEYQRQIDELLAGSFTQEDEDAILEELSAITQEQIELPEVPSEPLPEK

T3: full length GST-CHMP6_(1−201) (human, UniProt Q96FZ7 1-201)
T3 sequence (looked up): T1 sequence (looked up)

T4: VPS4A MIT_(L64D) (human, UniProt Q9UN37 1-84, L64D)
T4 sequence (looked up): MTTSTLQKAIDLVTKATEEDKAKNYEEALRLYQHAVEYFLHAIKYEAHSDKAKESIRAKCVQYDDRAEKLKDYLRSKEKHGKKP

B1: VPS4B MIT domain (domain or fragment, human, UniProt O75351 4-82, looked up)
chain: TSPNLQKAIDLASKAAQEDKAGNYEEALQLYQHAVQYFLHVVKYEAQGDKAKQSIRAKCTEYLDRAEKLKEYLKNKEKK
B2: VPS4A MIT domain (VPS4A residues 1−84) (domain or fragment, human, UniProt Q9UN37 1-84, looked up)
chain: T4 sequence (looked up) with D64L

Experiment [1] concerns the target T1, GST-CHMP6 (construct of the VPS4B …). Put plainly: SPR. For orientation: In SPR one partner is held on a chip, and binding of the other changes the refractive index at the surface.
For experiment [2], the target named is T2, GST-CHMP6 without the final 20 residues. Put plainly: SPR.
Experiment [3] addresses T3, full length GST-CHMP6_(1−201). Put plainly: SPR.
For another experiment, the target named is CHMP6 MIM2 L178D (human). Put plainly: SPR.
Experiment [4] concerns the target B2. The experiment can be described thus: SPR.
The next experiment addresses T4, VPS4A MIT_(L64D). The experiment can be described thus: SPR.
The target of experiment [5] is B2. Put plainly: NMR solution structure.

As to B1, in experiment [1], the Kd was found to be 786 ± 6 µM. With B2, the dissociation constant (Kd) in experiment [2] was 23.2 ± 0.2 µM; in experiment [3], 33 ± 7 µM; in the experiment with CHMP6 MIM2 L178D (human), 44.4 µM. For the molecule QEQIELPEVPSEPLPEK (domain or fragment, human, UniProt Q96FZ7 165-181, looked up) [GST-CHMP6_(165−181) fragment], the Kd came to 5.8 ± 0.8 µM in experiment [4] and 26.1 ± 0.8 µM with VPS4A MIT_(L64D). LPEVPSEPLPEK (domain or fragment, human, UniProt Q96FZ7 170-181, looked up) [GST-CHMP6_(170−181) minimal fragment]: in experiment [4], the Kd was 8 ± 0.1 µM.

Take EQIELPEVPSEPLPEK (peptide, UniProt Q96FZ7 166-181, looked up) [CHMP6_(166−181) MIM2 peptide]: the binding result in experiment [5] is “binds”.

In general, Kd refers to a measure of binding affinity in units of concentration. A lower Kd goes with a tighter complex.
